Measured values taken from article PMC9709291 (Frontiers in Immunology, 2022).

Molecular target: TcdA^1073-1464 (fragment of the delivery and receptor-binding domain of TcdA, residues 1073-1464) (Clostridioides difficile VPI10463, UniProt P16154)
Test: pull-down
Conditions: both partners purified

Chain of TcdA^1073-1464 (fragment of the delivery and receptor-binding domain of TcdA, residues 1073-1464) (P16154 1073-1464): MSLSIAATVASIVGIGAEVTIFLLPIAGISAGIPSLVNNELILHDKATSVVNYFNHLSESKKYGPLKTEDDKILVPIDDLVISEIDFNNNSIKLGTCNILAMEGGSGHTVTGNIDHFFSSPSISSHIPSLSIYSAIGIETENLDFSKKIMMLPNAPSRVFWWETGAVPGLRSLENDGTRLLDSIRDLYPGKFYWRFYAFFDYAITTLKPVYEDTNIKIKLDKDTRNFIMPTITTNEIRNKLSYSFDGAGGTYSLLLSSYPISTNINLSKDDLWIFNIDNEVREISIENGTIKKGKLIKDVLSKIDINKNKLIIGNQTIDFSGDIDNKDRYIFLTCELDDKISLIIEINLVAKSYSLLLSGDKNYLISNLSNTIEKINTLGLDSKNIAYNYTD

B1: VHH AA6 (VHH)
VHH: QVQLVESGGGLVQPGGSLRLSCAASGFTFSDYVMTWVRQAPGKGPEWIATINTDGSTMRDDSTKGRFTISRDNAKNTLYLQMTSLKPEDTALYYCARGRVISASAIRGAVRGPGTQVTVSS
B1: binds.
